Source: doi:10.1101/393223, “Structures of the substrate-engaged 26S proteasome reveal the mechanisms for ATP hydrolysis-driven translocation” (bioRxiv, 2018)

Target: T1, Rpn11 (3XFLAG-tagged, in the 26S proteasome) (S. cerevisiae, UniProt P43588 1-306)
T1 construct: Rpn11, Zn2+-dependent deubiquitinase of the lid, S. cerevisiae; strain YYS40 RPN11::RPN11-3XFLAG; the catalytic Zn2+ is not visible in the structure; also called Rpn11 deubiquitinase; source: purified from S. cerevisiae strain YYS40 as part of the 26S proteasome (anti-FLAG, SEC)
Assay: cryo-EM structure; 26S proteasome (20 μM; 20 mM HEPES pH 7.6, 25 mM NaCl, 25 mM KCl, 10 mM MgCl2, 1 mM TCEP, 5 mM ATP, 0.05% NP-40, ATP regeneration system, 6 mM ortho-phenanthroline) mixed with an equal volume of 50 μM ubiquitinated model substrate and vitrified at once; single-particle analysis gave four substrate-engaged states (1D*, 5D, 5T, 4D)
Details: both partners purified

B1: ubiquitin (S. cerevisiae), the most proximal, substrate-attached moiety of the poly-ubiquitin chain (natural protein)
chain: not shown
modifications: C-terminus in an isopeptide bond with the substrate lysine; part of a K63-linked ubiquitin chain
notes: ubiquitin, S. cerevisiae; cut product of the ubiquitin precursors; Modeled at the Rpn11 active site in the 4D state with PDB 5U4P as template; also called ubiquitin moiety
Does B1 bind?
Result: binds
